Patent US20030145350A1, “Method for increasing the content of fatty acids in plants and micro-organisms” (priority 2000, published 2003)
Read-outs that look alike come from different tables or passages of the source.

Columns and labels:
[1] = target: T1, Cuphea wrightii KAS IIIa (β-ketoacyl ACP synthase IIIa), recombinant wild-type, GenBank U15935 (Cuphea wrightii, UniProt P49244); assay: Inhibition of recombinant wild-type KAS IIIa by acyl ACPs and acyl CoAs ([1-14C] acetate incorporation into acetoacetyl ACP; Lineweaver-Burk); type: biochemical
T1 construct: His6 (N); made in house; host or cells: E. coli BL21(DE3)pLys, pET 15b vector
T1 sequence (P49244 68-400 limits assumed): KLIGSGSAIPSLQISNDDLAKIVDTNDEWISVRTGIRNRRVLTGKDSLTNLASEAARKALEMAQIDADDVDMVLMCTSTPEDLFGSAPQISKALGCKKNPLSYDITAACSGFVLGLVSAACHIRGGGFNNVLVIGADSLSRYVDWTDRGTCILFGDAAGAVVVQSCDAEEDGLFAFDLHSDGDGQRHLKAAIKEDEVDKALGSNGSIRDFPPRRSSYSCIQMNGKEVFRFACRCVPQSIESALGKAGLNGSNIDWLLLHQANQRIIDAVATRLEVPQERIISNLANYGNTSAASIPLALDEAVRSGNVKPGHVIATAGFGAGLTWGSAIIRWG
Procedure: (§1) Wild-type KAS III and KAS IIIa mutants were expressed with a His6-tag at the N-terminus in E. coli strain BL21(DE3)pLys (Novagen, Madison, USA) and purified by nickel affinity chromatography. Purity of the synthesised KAS IIIs was evaluated by SDS-PAGE. The KAS III concentration was determined by the method of Bradford (M. M. Bradford (1976), Anal. Biochem. 72, p. 248-254).
(§2) The activity of KAS IIIa was analysed by the incorporation of radioactive acetate from [1-^14C] acetyl CoA into acetoacetyl ACP (Brück et al. (1996), Planta 198, p. 271-278). The reaction mix (50 μl) contained 100 mM sodium phosphate, pH 7.6, 10 μM [1-^14C] acetyl CoA, 20 μM malonyl ACP and 2 ng of the recombinant KAS IIIa or the KAS IIIa mutant, respectively. The reaction was initiated by adding the enzyme and was performed for a period of 5 minutes at 30° C.
(§3) In the inhibition studies of the wild-type KAS IIIa the used conditions provided for saturation with respect to the substrates acetyl CoA and […]. As regards the inhibitors non-radioactive acyl ACPs (C2-C16) or acyl CoAs (C3-C12) were added at varying concentrations. The resulting data were analysed by the method of Lineweaver-Burk. The inhibition studies of the KAS IIIa mutants with acyl ACPs were performed with 10 μM non-radioactive dodecanoyl ACP (see FIG. 3).
(§4) The KAS III activity was measured as described above in the presence of varying concentrations of acyl ACP (5-25 μM) or of acyl CoA (10-50 μM).
FIG. 2: Kinetic of the inhibition of wild-type KAS III by dodecanoyl ACP. Double reciprocal plots of the concentration of acetyl CoA (A) and malonyl ACP (B) against the activity of KAS III in the absence (●) and presence of 1 μM (▴), 2.5 μM (▪) and 5 μM (▾) dodecanoyl ACP. The respective substrate partner was maintained at a constant level at 10 μM [1-^14C] acetyl CoA and 20 μM malonyl ACP. The enzyme activity was determined by monitoring the incorporation of [1-^14C] acetate from [1-^14C] acetyl CoA into β-ketobutyryl ACP (n=8).

[2] = target: recombinant wild-type Cuphea wrightii β-ketoacyl ACP synthase IIIa (cwKAS IIIa) (Cuphea wrightii); assay: inhibition of KAS IIIa enzyme activity ([1-14C] acetyl CoA incorporation), 5-25 µM acyl ACP, Lineweaver-Burk analysis
[3] = tested on: Cuphea wrightii KAS IIIa mutant Asn358Asp (N291D in the mature protein); assay: Inhibition of KAS IIIa mutant Asn358Asp by dodecanoyl ACP; type: biochemical
Procedure: (§5) Then, three point-mutated KAS IIIs were created by the substitution of asparagine^358 by aspartate, alanine^361 by serine and alanine^362 by proline. The amplification of the overlapping DNA fragments of the KAS III mutants was performed by two separate reactions, which each contained 2 ng K3MK-pGEMT plasmid as template, 2.5 U proof-reading Pfu polymerase, 200 μM dNTPs and 50 pmol of each of the primers in a total volume of 50 μl. Each reaction mix contained a flanking primer (Fse5 or Xho3) and the corresponding mutation primer. […]
as §1
(§6) The activity of KAS IIIa was analysed by the incorporation of radioactive acetate from [1-^14C] acetyl CoA into acetoacetyl ACP (Brück et al. (1996), Planta 198, p. 271-278). […]
(§7) In the inhibition studies of the wild-type KAS IIIa the used conditions provided for saturation with respect to the substrates acetyl CoA and malonyl CoA. […] The resulting data were analysed by the method of Lineweaver-Burk. […]

[4] = tested on: Cuphea wrightii KAS IIIa mutant Ala361Ser (A294S in the mature protein); assay: Inhibition of KAS IIIa mutant Ala361Ser by dodecanoyl ACP; type: biochemical
Procedure: as §5, §1, §6, §7

[5] = target: Cuphea wrightii KAS IIIa mutant Ala^361Ser (Cuphea wrightii); assay: cell-based or functional assay
[6] = target: Cuphea wrightii KAS IIIa mutant Asn^358Asp (Cuphea wrightii); assay: cell-based or functional assay
[7] = target: T2, wild-type KAS IIIa (Cuphea wrightii, UniProt P49244); assay: Inhibition of wild-type KAS IIIa by acyl ACPs and acyl CoAs ([1-14C] acetyl CoA incorporation into acetoacetyl ACP); type: biochemical; details: with respect to acetyl CoA or malonyl CoA; Lineweaver-Burk
T2 construct: His6 (N); made in house; host or cells: E. coli BL21(DE3)pLys, vector pET15b
T2 sequence (P49244 68-400 limits assumed): T1 sequence (P49244 68-400 limits assumed)
Procedure: as §2, §3, §4
FIG. 2: Kinetic of the inhibition of wild-type KAS III by dodecanoyl ACP. […] The enzyme activity was determined by monitoring the incorporation of [1-^14C] acetate from [1-^14C] acetyl CoA into β-ketobutyryl ACP (n=8).

[8] = acyl CoA 10-50 μM, pH 7.6, 30° C., 5 minutes, Lineweaver-Burk, read-out: Ki (acyl CoAs)
[9] = in the presence of a saturation concentration (10 μM) of dodecanoyl ACP

Sequence of dodecanoyl ACP (P0A6A8 2-78): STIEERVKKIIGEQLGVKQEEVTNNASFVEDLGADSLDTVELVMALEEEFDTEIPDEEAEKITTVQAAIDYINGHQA
Sequence of acyl ACP, chain length 6 carbon atoms (P0A6A8 2-78): as above
Sequence of acyl ACP, chain length 4 carbon atoms (P0A6A8 2-78): as above
Sequence of acyl ACP, chain length 10 carbon atoms (P0A6A8 2-78): as above
Sequence of acyl ACP, chain length 8 carbon atoms (P0A6A8 2-78): as above
Sequence of acyl ACP, chain length 16 carbon atoms (P0A6A8 2-78): as above
Sequence of acyl ACP, chain length 14 carbon atoms (P0A6A8 2-78): as above
Sequence of acyl ACP, chain length 2 carbon atoms (P0A6A8 2-78): as above

## CCC(=O)SCCNC(=O)CCNC(=O)[C@H](O)C(C)(C)COP(=O)(O)OP(=O)(O)OC[C@H]1O[C@@H](n2cnc3c(N)ncnc32)[C@H](O)[C@@H]1OP(=O)(O)O [acyl CoA C3]
[1]
  Ki: 20.8 ± 0.51 µM

## CCCC(=O)SCCNC(=O)CCNC(=O)[C@H](O)C(C)(C)COP(=O)(O)OP(=O)(O)OC[C@H]1O[C@@H](n2cnc3c(N)ncnc32)[C@H](O)[C@@H]1OP(=O)(O)O [acyl CoA C4]
[1]
  Ki: 91.9 ± 0.9 µM

## CCCCCC(=O)SCCNC(=O)CCNC(=O)[C@H](O)C(C)(C)COP(=O)(O)OP(=O)(O)OC[C@H]1O[C@@H](n2cnc3c(N)ncnc32)[C@H](O)[C@@H]1OP(=O)(O)O [acyl CoA C6]
[1]; [8]
  Ki: 42.7 ± 0.3 µM

## CCCCCCCC(=O)SCCNC(=O)CCNC(=O)[C@H](O)C(C)(C)COP(=O)(O)OP(=O)(O)OC[C@H]1O[C@@H](n2cnc3c(N)ncnc32)[C@H](O)[C@@H]1OP(=O)(O)O [acyl CoA C8]
[1]; [8]
  Ki: 24.4 ± 0.6 µM

## CCCCCCCCCC(=O)SCCNC(=O)CCNC(=O)[C@H](O)C(C)(C)COP(=O)(O)OP(=O)(O)OC[C@H]1O[C@@H](n2cnc3c(N)ncnc32)[C@H](O)[C@@H]1OP(=O)(O)O [acyl CoA C10]
[1]; [8]
  Ki: 12.5 ± 0.6 µM

## CCCCCCCCCCCC(=O)SCCNC(=O)CCNC(=O)[C@H](O)C(C)(C)COP(=O)(O)OP(=O)(O)OC[C@H]1O[C@@H](n2cnc3c(N)ncnc32)[C@H](O)[C@@H]1OP(=O)(O)O [acyl CoA C12]
[1]; [8]
  Ki: 20 ± 0.7 µM

## acyl ACP, chain length 2 carbon atoms
[2]
  Ki: 2.16 µM

## acyl ACP, chain length 4 carbon atoms
[2]
  Ki: 2.9 µM

## acyl ACP, chain length 6 carbon atoms
[2]
  Ki: 8 µM

## acyl ACP, chain length 8 carbon atoms
[2]
  Ki: 4.1 µM

## acyl ACP, chain length 10 carbon atoms
[2]
  Ki: 4.1 µM

## acyl ACP, chain length 14 carbon atoms
[2]
  Ki: 4 µM

## acyl ACP, chain length 16 carbon atoms
[2]
  Ki: 1.3 µM

## dodecanoyl ACP [listing 1 of 2 here]
[3]; 10 μM dodecanoyl ACP
  inhibition by acyl ACP (in words): almost not at all inhibited
[3]; [9]
  initial activity maintained: about 85%
[4]; 10 μM dodecanoyl ACP
  inhibition by acyl ACP (in words): almost not at all inhibited
[4]; [9]
  initial activity maintained: about 85%

## dodecanoyl ACP [listing 2 of 2 here]
[5]
  initial activity maintained in the presence of a saturation concentration (10 µM) of dodecanoyl ACP: 85%
[6]
  initial activity maintained in the presence of a saturation concentration (10 µM) of dodecanoyl ACP: 85%
[2]
  Ki: 0.4 µM

## dodecanoyl ACP [acyl ACPs 12]
[7]
  type of inhibition of KAS IIIa: not competitive
